One may read the stoichiometry N as a count of units in the complex or per binding partner.

Consider five molecules from article PMC9851909, “Structure of a volume-regulated heteromeric LRRC8A/C channel” (Nature Structural & Molecular Biology, 2022).

Where “and” joins values, the source holds several entries; their conditions need not be identical. Equal entries are not always repeated.

The target in data set [1] is murine LRRC8C, full length (murine) (UniProt Q8R502). Description: affinity purification with mass spectrometry; differentially tagged murine LRRC8A (or LRRC8A^SAM) and LRRC8C co-expressed in HEK293S GnTI- or LRRC8-/- cells at A:C DNA ratios of 1:1 or 1:3; tandem affinity purification (Ni-NTA, then Streptactin) in digitonin, 25 mM Tris pH 8.5, 250 mM NaCl, 4 °C; LC-MS/MS absolute quantification with isotope-labelled peptides.

For data set [2] the target is unchanged. Description: cryo-EM structure; tandem-purified LRRC8A/C (A:C DNA 1:1 and 1:3) in digitonin with tag-free Sb1 added at a 1.5 molar excess before vitrification; C1; high resolution only for the 1:1 sample.
Data set [3] concerns the molecule itself. As to the kind of experiment: cryo-EM structure; homomeric LRRC8C at 5 mg/ml in digitonin, three data sets, two of them with Sb1 added at a 1:1.5 molar excess (per LRRC8C subunit) as negative control; C7 symmetry.
For data set [4], the target named is T1, endogenous LRRC8A of HEK293 cells (human (endogenous in HEK293T), UniProt Q8IWT6).
T1 construct: LRRC8A, endogenous in HEK293 cells; also called A subunit; SWELL1; source: endogenous, HEK293T and HEK293 LRRC8^B,D,E-/- cells, lysate in 2% GDN; isolated on SBP-tagged Sb1
Description: affinity purification with mass spectrometry; pairs of the bait Sb1: endogenous LRRC8 channels from HEK293T (WT) or LRRC8^B,D,E-/- cells isolated on SBP-tagged Sb1 and Streptactin resin (Sb1 either expressed in the same cells or purified and bound to the resin before the lysate was loaded; which protocol for which sample is not told); 2% GDN lysis, 36 mM Tris pH 8.5, 150 mM NaCl; tryptic digest, LC-MS/MS.

Data set [5] deals with T2, endogenous LRRC8C of HEK293 cells (human (endogenous in HEK293T), UniProt Q8TDW0 1-803).
T2 construct: LRRC8C, endogenous in HEK293 cells; also called C subunit; source: endogenous, HEK293T and HEK293 LRRC8^B,D,E-/- cells, lysate in 2% GDN
T2 sequence (looked up): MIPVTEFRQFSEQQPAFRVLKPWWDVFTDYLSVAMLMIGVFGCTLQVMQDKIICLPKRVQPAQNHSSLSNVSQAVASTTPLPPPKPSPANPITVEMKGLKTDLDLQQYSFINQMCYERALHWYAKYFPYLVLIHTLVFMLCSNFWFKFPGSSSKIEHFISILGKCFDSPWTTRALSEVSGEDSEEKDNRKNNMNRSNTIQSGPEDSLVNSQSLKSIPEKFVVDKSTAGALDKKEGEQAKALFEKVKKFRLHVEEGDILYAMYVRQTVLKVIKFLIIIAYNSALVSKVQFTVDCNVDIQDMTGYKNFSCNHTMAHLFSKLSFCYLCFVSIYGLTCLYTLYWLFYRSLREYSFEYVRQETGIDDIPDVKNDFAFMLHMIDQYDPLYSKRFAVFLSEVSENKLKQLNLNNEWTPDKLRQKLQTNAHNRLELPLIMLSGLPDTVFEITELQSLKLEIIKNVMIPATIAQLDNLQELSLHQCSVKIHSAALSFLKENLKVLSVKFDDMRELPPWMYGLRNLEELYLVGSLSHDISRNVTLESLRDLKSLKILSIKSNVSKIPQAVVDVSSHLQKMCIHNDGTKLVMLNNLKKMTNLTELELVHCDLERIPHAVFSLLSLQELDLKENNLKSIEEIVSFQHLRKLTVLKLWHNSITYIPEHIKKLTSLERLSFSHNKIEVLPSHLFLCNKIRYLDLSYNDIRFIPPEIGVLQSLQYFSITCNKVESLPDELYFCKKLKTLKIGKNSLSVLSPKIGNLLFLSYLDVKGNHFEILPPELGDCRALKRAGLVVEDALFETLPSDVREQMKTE
Description: affinity purification with mass spectrometry; pairs of endogenous LRRC8 subunits in the channels isolated on SBP-tagged Sb1 from HEK293T (WT) or LRRC8^B,D,E-/- cells; shotgun LC-MS/MS and absolute quantification with two isotope-labelled reference peptides per subunit. Particulars: partners not purified.

“murine LRRC8A (from UniProt Q80WG5 1-810) (natural protein)”: the stoichiometry N is 2 A:C and 1.8 A:C in data set [1]; 2 A:C in data set [2].
Regarding “LRRC8A^SAM, construct for co-expression with LRRC8C (from UniProt Q80WG5 1-67; Q80WG5 93-810)”, in data set [1], the stoichiometry N is 2 A:C.

B1: murine LRRC8C, full length (natural protein, UniProt Q8R502 1-803, looked up)
chain: MIPVTEFRQFSEQQPAFRVLKPWWDVFTDYLSVAMLMIGVFGCTLQVMQDKIICLPKRVQPAQNHSSVPNVSQAVISTTPLPPPKPSPTNPATVEMKGLKTDLDLQQYSFINQMCYERALHWYAKYFPYLVLIHTLVFMLCSNFWFKFPGSSSKIEHFISILGKCFDSPWTTRALSEVSGEDSEEKDNRKNNMNRSGTIQSGPEGNLVRSQSLKSIPEKFVVDKSAAGALDKKEGEQAKALFEKVKKFRLHVEEGDILYAMYVRQTVLKVIKFLIIIAYNSALVSKVQFTVDCNVDIQDMTGYKNFSCNHTMAHLFSKLSFCYLCFVSIYGLTCLYTLYWLFYRSLREYSFEYVRQETGIDDIPDVKNDFAFMLHMIDQYDPLYSKRFAVFLSEVSENKLKQLNLNNEWTPDKLRQKLQTNAHNRLELPLIMLSGLPDTVFEITELQSLKLEIIKNVMIPATIAQLDNLQELCLHQCSVKIHSAALSFLKENLKVLSVKFDDMRELPPWMYGLRNLEELYLVGSLSHDISKNVTLESLRDLKSLKILSIKSNVSKIPQAVVDVSSHLQKMCVHNDGTKLVMLNNLKKMTNLTELELVHCDLERIPHAVFSLLSLQELDLKENNLKSIEEIVSFQHLRKLTVLKLWYNSIAYIPEHIKKLTSLERLFFSHNKVEVLPSHLFLCNKIRYLDLSYNDIRFIPPEIGVLQSLQYFSITCNKVESLPDELYFCKKLKTLKIGKNSLSVLSPKIGNLLFLSYLDIKGNHFEVLPPELGDCRALKRAGLVVEDALFETLPSDVREQMKAD
notes: LRRC8C, mouse; A remnant of the 3C site probably stays at the C-terminus; also called C subunit; C1; source: HEK293 LRRC8-/- cells (homomer; LRRC8A/C without Sb1; LRRC8A^SAM/C) or HEK293S GnTI- cells (LRRC8A/C/Sb1 samples), transfected, purified (Streptactin, SEC; tandem purification for heteromers) in digitonin; not shown: Venus, C-terminal, cleaved; myc, C-terminal, cleaved; SBP, C-terminal, …
Take B1: the “stoichiometry N” value in data set [3] worked out at 7.

B2: SBP-tagged sybody Sb1 (VHH)
VHH: QVQLVESGGGLVQAGGSLRLSCAASGFPVGRHFMYWYRQAPGKEREWVAAIYSYGEYTEYADSVKGRFTISRDNAKNTVYLQMNSLKPEDTAVYYCYVYVGNEYWGQGTQVTVSA
notes: as the chain of m3 (sybody Sb1), here with a C-terminal 3C site, myc tag and SBP tag (pcDXc3MS); they are in PDB 8B41 and PDB 7P5V; also called SBP-tagged Sb1; immobilized Sb1; not shown: myc, C-terminal, kept; SBP, C-terminal, kept
With B2, the binding result in data set [4] was “binds”.

B3: endogenous LRRC8A of HEK293 cells (natural protein, human (endogenous in HEK293T), UniProt Q8IWT6 1-810, looked up)
chain: MIPVTELRYFADTQPAYRILKPWWDVFTDYISIVMLMIAVFGGTLQVTQDKMICLPCKWVTKDSCNDSFRGWAAPGPEPTYPNSTILPTPDTGPTGIKYDLDRHQYNYVDAVCYENRLHWFAKYFPYLVLLHTLIFLACSNFWFKFPRTSSKLEHFVSILLKCFDSPWTTRALSETVVEESDPKPAFSKMNGSMDKKSSTVSEDVEATVPMLQRTKSRIEQGIVDRSETGVLDKKEGEQAKALFEKVKKFRTHVEEGDIVYRLYMRQTIIKVIKFILIICYTVYYVHNIKFDVDCTVDIESLTGYRTYRCAHPLATLFKILASFYISLVIFYGLICMYTLWWMLRRSLKKYSFESIREESSYSDIPDVKNDFAFMLHLIDQYDPLYSKRFAVFLSEVSENKLRQLNLNNEWTLDKLRQRLTKNAQDKLELHLFMLSGIPDTVFDLVELEVLKLELIPDVTIPPSIAQLTGLKELWLYHTAAKIEAPALAFLRENLRALHIKFTDIKEIPLWIYSLKTLEELHLTGNLSAENNRYIVIDGLRELKRLKVLRLKSNLSKLPQVVTDVGVHLQKLSINNEGTKLIVLNSLKKMANLTELELIRCDLERIPHSIFSLHNLQEIDLKDNNLKTIEEIISFQHLHRLTCLKLWYNHIAYIPIQIGNLTNLERLYLNRNKIEKIPTQLFYCRKLRYLDLSHNNLTFLPADIGLLQNLQNLAITANRIETLPPELFQCRKLRALHLGNNVLQSLPSRVGELTNLTQIELRGNRLECLPVELGECPLLKRSGLVVEEDLFNTLPPEVKERLWRADKEQA
notes: LRRC8A, endogenous in HEK293 cells; also called A subunit; SWELL1; source: endogenous, HEK293T and HEK293 LRRC8^B,D,E-/- cells, lysate in 2% GDN; isolated on SBP-tagged Sb1
For the molecule B3, the “stoichiometry N” value in data set [5] was 2.9 A:C and 1.8 A:C.
